From the supplement of paper PMC9170038

System: MS2 coat protein
Assay: apparent KD of MS2 coat protein; designed switch direction (-1 OFF switch, 1 ON switch): -1; higher = weaker reporter binding
In short: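 Designed RNA switches with common flanks were transcribed on Illumina chips by stalled E. coli RNA polymerase and titrated with SNAP-549-labelled MS2 coat protein, from 0.7 or 1.5 nM doubling to 3 µM, in Tris-HCl pH 7.5 buffer with KCl, MgCl2, BSA, DTT, tRNA and Tween-20. Steps lasted 0.8–1.5 h (lowest) to 10–20 min (highest). Titrations ran without input, with 200 uM small-molecule ligand, or with an oligonucleotide input. Normalised cluster fluorescence was curve-fitted, and apparent KD is the per-design median over clusters.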

[1] = Eterna round: R95, input ligand: FMN 200 uM
[2] = Eterna round: R95, input ligand: microRNA oligo, concentration not stated
[3] = Eterna round: R95, input ligand: none
[4] = input ligand: microRNA oligo, concentration not stated

Sequence | apparent KD of MS2 coat protein (input ligand: FMN 200 uM) [nM] | apparent KD of MS2 coat protein (input ligand: none) [nM] | apparent KD of MS2 coat protein [1] [nM] | apparent KD of MS2 coat protein [2] [nM] | apparent KD of MS2 coat protein [3] [nM] | apparent KD of MS2 coat protein [4] [nM]
GGCAUCGGAGGAUAUACUUAUGGUGAUGUUCGAAGCUUUCUACUUGAGGAUCACCCAAGUAGAAGGCCGAUGCC [jl-ex2.4.78 ViennaUCT mod] (Eterna round: R97, puzzle: Exclusion 2) | 5.28 | 17.4 |  |  |  | 
UUAUUACAAGCAAGAUCCUACAUGAGGAUCACCCAUGUGCUCGUCUUAUAAGGUACAGUGACGAAAGUCACAGUACC [Sensor 3, v1 - 00] (puzzle: Sensor v3, turn-off variant 1) |  |  | 204 | 138 | 221 | 
UAUUGAGAGCAGGAUAUAUUCCUGAUGUAUGAAGUAGAAGGGCUCACAUGAGGAUCACCCAUGUGAUCCUGAAU [Mat - Exclusion 6 - Eli Mod - D5] (Eterna round: R97, puzzle: Exclusion 6) | 15.5 | 14 |  |  |  | 
UAGAUACAUGAGGAUCACCCAUGUGAGGAUAUGAGAAUUAUAUUAAAUGAAUUAAUUUUCAGAAGGCACAAAGG [JR_Ex1_Sub052] (Eterna round: R97, puzzle: Exclusion 1) | 177 | 166 |  |  |  | 
UUUAAUUUUUUUUUUUUACAAGCUUUUUGCUCGUCUUAUACAUGAGGAUCACCCAUGUGAGUGGGAAGUAAAUUAUC [JMF 55] (puzzle: Sensor v3, turn-off variant 2) |  |  | 20.5 | 248 | 19.9 | 
AGUACUAACACGAGAGUGUUAGUACUAUAAGCUUGUGAAACAUGAGGAUCACCCAUGUCCUCAUAAGCUCGUCUUAU [Mat - Sensor v3 - Turn-off var 2 - D103] (puzzle: Sensor v3, turn-off variant 2) |  |  | 15.3 | 682 | 12.5 | 
ACAUGAGGAGAAGGAUAUCUUUAGAGGGUUACCAGAGAAGGUCUAACAUGAGGAUCACCCAUGUCAUGAGGGUCUUGAAUGUUG [10th something] (Eterna round: R96, puzzle: Exclusion NG 1) | 145 | 140 |  |  |  | 151
CCUCGACAUGAGGAUCACCCAUGUAAGGAUAUGUUGACGAGCCUGAAAAGGCUGGUCAACAGAAGGUAUAUGUA [Exclusion 1 (Mod 1b.1 solution 16 by Eternabot)] (Eterna round: R97, puzzle: Exclusion 1) | 112 | 28.4 |  |  |  | 
GAUAGAGAGCAGGAUAUCUUGGAUAAGUGUUGUAGAGAAGGGCUCACAUGAGGAUCACCCAUGUGGUCCUAGAU [JL Dibiri mod 09] (puzzle: Exclusion 6) |  |  | 37.5 | 13.2 | 14.3 | 
GCUCACGCAGGAUAUACAUGAGGAUCACCCAUGUUCGAAGGGCGUGGGUACAAAGUCUGUAGAAGGGCGAAAAU [Edrereve] (Eterna round: R97, puzzle: Exclusion 3) | 20.6 | 17.4 |  |  |  | 
UACCGGCGGACCGAAGCUUUUUGCUUGUUUUAUACUACAACAUGAGGAUCACCCAUGUGGUGGUGGUCCGUUGUAGU [JL ViennaUCT Bitein mod 1] (puzzle: Sensor v3, turn-off variant 2) |  |  | 63.9 | 16.7 | 58.6 | 
UUAUUGGUUGUGAGGAUAUCGGAUAGAUAGAUAUUCGAGAAGGCACAUGAGGAUCACCCAUGUGUGAUUAGAAA [JR_BMEx4_Sub048] (Eterna round: R97, puzzle: Brourd's mod of Exclusion 4) | 193 | 25.9 |  |  |  | 
AGCCCUGCAGGAUAUGCCCGGGAUAACAUGAGGAUCACCCAUGUGACUGAUUGUUAUUCUGCAGAAGGGUAUGGGA [JL-EX5-4.16 ViennaUCT mod] (Eterna round: R97, puzzle: Exclusion 5) | 404 | 322 |  |  |  | 
UAACUUUUUGUAAGGAUAUCGGUCCCAAGGGACAACGAGAAGGUACAUGAGGAUCACCCAUGUGAAAUAAGAAU [Mod of Zala 20 - Jieux - Brourd's Mod of Exclusion 4] (Eterna round: R97, puzzle: Brourd's mod of Exclusion 4) | 154 | 22.7 |  |  |  | 
GUUAAGGUAGGAUAUACGAGAAUAUAGGGUAGAUAUAUAACACAUGAGGAUCACCCAUGUAGAAGGACCAAUUG [Mat - Exclusion 2 - Mod of my Tesla design - D57] (puzzle: Exclusion 2) |  |  |  | 33.1 |  | 
ACUAGAUGAGGAUAUGCACAUUUUAGUGUUCCUCUAGAUUAACAUGAGGAUCACCCAUGUAGAAGGCGUCAUUU [Exclusion 2 - 13] (Eterna round: R96, puzzle: Exclusion 2) | 119 | 84.2 |  |  |  | 59.1

Sequence | apparent KD of MS2 coat protein (input ligand: FMN 200 uM) [nM] | apparent KD of MS2 coat protein (input ligand: none) [nM] | apparent KD of MS2 coat protein [1] [nM] | apparent KD of MS2 coat protein [2] [nM] | apparent KD of MS2 coat protein [3] [nM] | apparent KD of MS2 coat protein [4] [nM]
GAACCUUGAGGAUAUACAUAACAACAAAGCCUCACGUGCCAACAUGAGGAUCACCCAUGUAGAAGGCAAGCCAA [Mod R3 Insanara 9 - Jieux - Exclusion 2] (Eterna round: R97, puzzle: Exclusion 2) | 19 | 16.2 |  |  |  | 
GCACGGAGUGUAGGAUAUCUGUGCGAUUAGCUCAGAGAAGGACACAUGAGGAUCACCCAUGUGUAACUCAACAAUAAUCCGUGC [Eli exng1 - 073] (Eterna round: R96, puzzle: Exclusion NG 1) | 18.3 | 11.9 |  |  |  | 8.53
UGAGCUGAAGGAUAUGCGUAAUCACGGUGACGUGUAGAUCUACAUGAGGAUCACCCAUGUAGAAGGUCAGUUCU [Mat - Exclusion 2 - JL Mod - D33] (Eterna round: R97, puzzle: Exclusion 2) | 17 | 16.1 |  |  |  | 
GACUGAGCAGGAUAUACAUGAGGAUCACCCAUGUUGGUUCAGCGACGAUAGUCGCAAUGUAGAAGGGCUCAGUC [E3/9-D2] (Eterna round: R97, puzzle: Exclusion 3) | 273 | 203 |  |  |  | 
UCCUCACAUGAGGAUCACCCAUGUCAGGAUAUAAGAAACGCGGCAGGCAGCCGCAAAAUUAGAAGGGACAUUAA [EX1 A.27] (Eterna round: R97, puzzle: Exclusion 1) | 47.5 | 18.2 |  |  |  | 
ACCUCUAUCUAGGAUAUUGGAACCCGGUUAAAACAAGAAGGAGAUACAUGAGGAUCACCCAUGUUAACGAUGGA [Ereseninso] (puzzle: Exclusion 6) |  |  | 97.5 | 23.3 | 28.5 | 
GGGAAGAACCAACAAGCAAACAUGAGGAUCACCCAUGUAGUAGGAGGAAGAAAGGUGAUUUAGAAAGCUCGACUUAU [AK-miRNA-r3-6] (Eterna round: R97, puzzle: Sensor, turn-off variant 1) | 159 | 202 |  |  |  | 
AUGUUACUCUGAGGAUAUUGUUUAUUCUUCUCACAUGAGGAUCACCCAUGUUUCCGUGUUUACCGCAAGAAGGCAGUUUUGUUU [JR_ExcNG2_Sub028] (Eterna round: R96, puzzle: Exclusion NG 2) | 41.1 | 31.8 |  |  |  | 29
AAGAAGAGGUGAGGAUAUCGAAGUACAGGCUGGGACUCGGACUACAUGAGGAUCACCCAUGUAUACGAGAAGGCACUUCGAUAA [Quusatrare] (Eterna round: R96, puzzle: Exclusion NG 2) | 12.6 | 14.7 |  |  |  | 12
ACAUGAGGAUCACCCAUGUGACCACGAUGGCUGAUGUAAAGACAGGAUAUGUGUGAAUAUCUAACACAGAAGGGUCUUGACUGG [Deportation 56 - Jieux - Exclusion NG 3] (Eterna round: R96, puzzle: Exclusion NG 3) | 33.8 | 33.2 |  |  |  | 32.6
UAUUUGCAAGCGAGAUCCCACAUGAGGAUCACCCAUGUGCUCGUCUUAUAAGGUACUGUGACGAUAGUCACGGUACC [Mat - Sensor, turn-off var - Eli Mod - D89] (Eterna round: R97, puzzle: Sensor, turn-off variant 1) | 14 | 14.4 |  |  |  | 
GUAGCUUCGGCUACUACAAGCUUUUUGCUCGUCUUAUUAACAUGAGGAUCACCCAUGUACAAGAGACCUCAUGUAUU [Sensor v3 - turn-off variant 2 - 13] (puzzle: Sensor v3, turn-off variant 2) |  |  | 90.4 | 15.6 | 146 | 
AUGCUCCGUGUAGGAUAUCGCCGUAUUACUCGGCGAGAAGGACAUGAGGAUCACCCAUGUAUGUUAUUAUCACGUGUGGCGCGC [Design 46] (Eterna round: R96, puzzle: Exclusion NG 1) | 35.2 | 18.6 |  |  |  | 15.4
UUAAAUCAUGUAGGAUAUGCGUGGCGAAGCUAUGCAGAAGGACAUGAGGAUCACCCAUGUUCAUCCGUCUGCGUACAGAUGGAA [JL Eng1 1.08 mod 1] (Eterna round: R96, puzzle: Exclusion NG 1) | 271 | 28.2 |  |  |  | 21.6
AAAAGGUCAGGAUAUACAAGAAAAGAAAAGAAAAGAAAAGAGUAGAAGGGACAUGAGGAUCACCCAUGUAAAAG [Default title] (puzzle: Exclusion 4) |  |  | 30.6 | 45.8 | 35.1 | 
CAGUACUGAGGAUAUACAUGAGGAUCACCCAUGUGUACCAGCUAGGAAACUAGCAAAAGUAGAAGGCAGUACUG [828 mod 2 m10] (Eterna round: R97, puzzle: Exclusion 3) | 32.6 | 14.9 |  |  |  | 
